Test results reported in patent publication US20250051463A1 (AstraZeneca / MedImmune, published 2025).

T1: human IL3Rα (CD123), sample in solution for biolayer interferometry (human, UniProt P26951 19-305, limits assumed)
T1 construct: Soluble analyte in the Octet assay; also called hIL3-Rα; hIL3Rα
T1 sequence (looked up): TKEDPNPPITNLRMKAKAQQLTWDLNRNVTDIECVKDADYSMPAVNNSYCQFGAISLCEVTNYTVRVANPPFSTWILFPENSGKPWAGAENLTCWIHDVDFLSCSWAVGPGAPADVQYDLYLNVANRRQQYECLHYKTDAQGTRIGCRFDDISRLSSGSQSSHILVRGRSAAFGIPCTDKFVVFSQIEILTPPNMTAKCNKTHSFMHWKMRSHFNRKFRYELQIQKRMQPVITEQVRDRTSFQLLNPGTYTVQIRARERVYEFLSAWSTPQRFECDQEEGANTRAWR

B1: HT31-GL (antibody, V domains shown)
VH: EVQLLESGGGLVQPGGSLRLSCAASGFTFSIYAMSWVRQAPGKGLEWVSAISGGGDSTYYADSVKGRFTISRDNSKNTLYLQMNSLRAEDTAVYYCAKDRGFYYGMDVWGQGTTVTVSS
VL: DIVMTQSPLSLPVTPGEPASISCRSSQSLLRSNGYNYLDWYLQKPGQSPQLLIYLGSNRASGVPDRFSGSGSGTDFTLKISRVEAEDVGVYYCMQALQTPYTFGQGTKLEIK
notes: member of m17
B2: HT4-GL (antibody, V domains shown)
VH: EVQLLESGGGLVQPGGSLRLSCAASGFTFSIYAMSWVRQAPGKGLEWVSAISGGGDSTYNADSVKGRFTISRDNSKNTLYLQMNSLRAEDTAVYYCAKDRGYYYGMVVWGQGTTVTVSS
VL: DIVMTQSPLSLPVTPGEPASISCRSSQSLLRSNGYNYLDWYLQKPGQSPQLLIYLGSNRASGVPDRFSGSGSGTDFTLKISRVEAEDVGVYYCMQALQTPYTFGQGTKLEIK
notes: member of m17
B3: HT6-GL (antibody, V domains shown)
VH: EVQLLESGGGLVQPGGSLRLSCAASGFTFNSYAMSWVRQAPGKGLEWVSAVSGGGDTTYYAESVKGRFTISRDNSKNTLYLQMNSLRAEDTAVYYCAKDRGYYYGMAVWGQGTTVTVSS
VL: DIVMTQSPLSLPVTPGEPASISCRSSQSLLRSNGYHYLDWYLQKPGQSPQLLIYLGSNRAPGVPDRFSGSGSGTDFTLKISRVEAEDVGVYYCMQALQTPYTFGQGTKLEIK
notes: member of m17
B4: HT7-GL (antibody, V domains shown)
VH: EVQLLESGGGLVQPGGSLRLSCAASGFTFSHYAMSWVRQAPGKGLEWVSAISGGGDRTFYADSVKGRFTISRDNSKNTLYLQMNSLRAEDTAVYYCAKDRGFYYGMDVWGQGTTVTVSS
VL: not shown
notes: member of m17
B5: HT8-GL (antibody, V domains shown)
VH: EVQLLESGGGLVQPGGSLRLSCAASGFTFSIYAMSWVRQAPGKGLEWVSAISGGGDTTYYADSMKGRFTISRDNSKNTLYLQMNSLRAEDTAVYYCAKDRGYYYGMDVWGQGTTVTVSS
VL: not shown
notes: member of m17
B6: HT10-GL (antibody, V domains shown)
VH: EVQLLESGGGLVQPGGSLRLSCAASGFTFSHYAMTWVRQAPGKGLEWISAISGGGDSTYYADSVKGRFTISRDNSKNTLYLQMNSLRAEDTAVYYCAKDRGYYYGMDDWGQGTTVTVSS
VL: not shown
notes: member of m17
B7: HT14-GL (antibody, V domains shown)
VH: EVQLLESGGGLVQPGGSLRLSCAASGFTFNIYAMTWVRQAPGKGLEWVSGISGGGDSTYYADSVKGRFTMSRDNSKNTLYLQMNSLRAEDTAVYYCAKDRGYYYGMDVWGQGTTVTVSS
VL: DIVMTQSPLSLPVTPGEPASISCKSRQSLLRSNGYNYLDWYLQKPGQSPQLLIYLGSNRASGVPDRFSGSGSGTDFTLKISRVEAEDVGVYYCMQALQTPYTFGQGTKLEIK
notes: member of m17
B8: HT16-GL (antibody, V domains shown)
VH: EVQLLESGGGLVQPGGSLRLSCAASGFTFSNYAMTWVRQAPGKGLEWVSAISGGGDTTYYADSVKGRFTISRDNSKNTLYLQMNSLRAEDTAVYYCAKDRGYYYGMDVWGQGTTVTVSS
VL: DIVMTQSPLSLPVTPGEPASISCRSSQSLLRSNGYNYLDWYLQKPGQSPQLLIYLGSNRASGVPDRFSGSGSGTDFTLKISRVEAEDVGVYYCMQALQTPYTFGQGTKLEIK
notes: member of m17
B9: HT29-GL (antibody, V domains shown)
VH: EVQLLESGGGLVQPGGSLRLSCAASGFAFSHYAMSWVRQAPGKGLEWVSAISGGGDSTYYADSVKGRFTISRDNSKNTLYLQMNSLRAEDTAVYYCAKDRGYYYGMDVWGQGTTVTVSS
VL: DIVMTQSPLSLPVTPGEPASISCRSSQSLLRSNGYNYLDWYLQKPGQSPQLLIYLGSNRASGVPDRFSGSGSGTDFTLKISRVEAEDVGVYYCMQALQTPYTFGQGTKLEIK
notes: member of m17
B10: HT30-GL (antibody, V domains shown)
VH: EVQLLESGGGLVQPGGSLRLSCAASGFTFSIYAMSWVRQAPGKGLEWVSAITAGGDTTYYAVSVKGRFTISRDNSKNTLYLQMNSLRAEDTAVYYCAKDRGYYYGMDVWGQGTTVTVSS
VL: not shown
notes: member of m17
B11: HT32-GL (antibody, V domains shown)
VH: EVQLLESGGGLVQPGGSLRLSCAASGFTFSSYAMSWVRQAPGKGLEWVSAISGGGDTTYYADSVKGRFTISRDNSKNTLYLQMNSLRAEDTAVYYCAKDRGFYYGMDVWGQGTTVTVSS
VL: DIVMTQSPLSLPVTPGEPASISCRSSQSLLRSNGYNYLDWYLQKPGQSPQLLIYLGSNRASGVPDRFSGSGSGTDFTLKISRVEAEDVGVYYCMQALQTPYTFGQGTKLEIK
notes: member of m17
B12: HT33-GL (antibody, V domains shown)
VH: EVQLLESGGGLVQPGGSLRLSCAASGFTFGHYAMSWVRQAPGKGLEWVSAISGGGDYTYYADSVKGRLTISRDNSKNTLYLQMNSLRAEDTAVYYCAKDRGYYYGMDVWGQGTTVTVSS
VL: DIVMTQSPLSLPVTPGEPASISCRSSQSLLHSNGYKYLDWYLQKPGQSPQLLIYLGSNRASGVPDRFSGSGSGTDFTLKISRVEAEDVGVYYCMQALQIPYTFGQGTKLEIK
notes: member of m17
B13: HT34-GL-L (antibody, V domains shown)
VH: EVQLLESGGGLVQPGGSLRLSCAASGFTFSHYAMTWVRQAPGKGLEWVSAISGGGDTTYYADSVKGRFTISRDNSKTTLYLQMNSLRAEDTAVYYCAKDRGYYYGMDVWGQGTTVTVSS
VL: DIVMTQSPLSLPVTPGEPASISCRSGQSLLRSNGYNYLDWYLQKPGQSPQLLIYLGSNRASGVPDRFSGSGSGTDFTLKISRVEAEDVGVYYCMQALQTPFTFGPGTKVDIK
notes: member of m17
B14: HT35-GL (antibody, V domains shown)
VH: EVQLLESGGGLVQPGGSLRLSCAASGFTFSHYAMTWVRQAPGKGLEWISAISGGGDSTYYADSVKGRFTISRDNSKNTLYLQMNSLRAEDTAVYYCAKDRGYYYGMDVWGQGTTVTVSS
VL: not shown
notes: member of m17
B15: HT36-GL (antibody, V domains shown)
VH: EVQLLESGGGLVQPGGSLRLSCAASGFTFSIYAMSWVRQAPGKGLEWVSAISGGGDTTYYADSVKGRFTSSRDNSKNTLYLQMNSLRAEDTAVYFCAKDRGFYYGMDVWGQGTTVTVSS
VL: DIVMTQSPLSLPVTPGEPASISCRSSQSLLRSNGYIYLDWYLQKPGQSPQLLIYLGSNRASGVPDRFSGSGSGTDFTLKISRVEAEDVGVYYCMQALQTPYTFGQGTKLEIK
notes: member of m17
B16: HT37-GL (antibody, V domains shown)
VH: EVQLLESGGGLVQPGGSLRLSCAASGFTFSIYAMTWVRQAPGKGLEWVSAISAGGDNTYNADSVKGRFTISRDNSKNTLYLQMNSLRAEDTAVYYCAKDRGYYYGMDVWGQGTTVTVSS
VL: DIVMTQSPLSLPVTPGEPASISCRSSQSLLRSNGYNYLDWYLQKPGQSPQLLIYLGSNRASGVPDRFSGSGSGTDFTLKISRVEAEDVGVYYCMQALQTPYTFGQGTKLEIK
notes: member of m17
B17: HT37-GL-L (antibody, V domains shown)
VH: EVQLLESGGGLVQPGGSLRLSCAASGFTFSIYAMTWVRQAPGKGLEWVSAISAGGDNTYNADSVKGRFTISRDNSKITLYLQMNSLRAEDTAVYYCAKDRGYYYGMDVWGQGTTVTVSS
VL: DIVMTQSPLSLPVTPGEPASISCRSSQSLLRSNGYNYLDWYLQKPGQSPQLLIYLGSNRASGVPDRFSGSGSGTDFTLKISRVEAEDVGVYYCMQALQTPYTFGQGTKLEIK
notes: member of m17
B18: HT38-GL (antibody, V domains shown)
VH: EVQLLESGGGLVQPGGSLRLSCAASGFTFSSYAMSWVRQAPGKGLEWVSAISGGGDSTYYTDSVKGRFTISRDNSKNTLYLQMNSLRAEDTAVYYCAKDRGFYYGMDVWGQGTTVTVSS
VL: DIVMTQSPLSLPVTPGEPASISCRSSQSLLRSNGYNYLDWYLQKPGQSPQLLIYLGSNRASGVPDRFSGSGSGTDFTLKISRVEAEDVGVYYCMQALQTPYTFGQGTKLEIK
notes: member of m17
B19: HT38-GL-Q (antibody, V domains shown)
VH: EVQLLESGGGLVQPGGSLRLSCAASGFTFSSYAMSWVRQAPGKGLEWVSAISGGGDSTYYTDSVKGRFTISRDNSKNTLYLQMNSLRAEDTAVYYCAKDRGFYYGMDVWGQGTTVTVSS
VL: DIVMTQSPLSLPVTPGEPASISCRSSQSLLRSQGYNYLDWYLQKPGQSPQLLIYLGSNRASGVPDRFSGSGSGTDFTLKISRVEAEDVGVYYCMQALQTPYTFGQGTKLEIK
notes: member of m17
B20: HT12-GL-SG3932 (antibody, human IgG1, kappa, V domains shown)
VH: EVQLLESGGGLVQPGGSLRLSCAASGFTFNIYAMTWVRQAPGKGLEWVSGISAGGDSTYYADSVKGRFTISRDNSKNTLYLQMNSLRAEDTAVYYCAKDRGYYYGMDVWGQGTTVTVSS
VL: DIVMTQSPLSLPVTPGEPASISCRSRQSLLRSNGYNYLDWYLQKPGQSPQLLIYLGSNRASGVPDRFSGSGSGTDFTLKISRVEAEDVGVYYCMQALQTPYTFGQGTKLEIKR
modifications: SG3932 drug-linker on Cysteine 214 (EU numbering); SG3932 drug-linker (maleimide, succinimidyl thioether) on reduced cysteines; Cysteine 220, Cysteine 226 and Cysteine 229 (EU numbering) named as conjugation sites; DAR 8
notes: also called HT12-GL ADC; CD123 ADC
B21: J13 antibody (antibody, V domains shown)
VH: EVQLVESGGGLVQPGGSLRLSCVVSGFTFSSYAMSWVRQAPGKGLEWVSAISGSGDSTYYADSVKGRFTFSRDNSKNTLYLQMNSLRAEDTAVYYCTKDRGFYYGMDVWGQGTMVTVSS
VL: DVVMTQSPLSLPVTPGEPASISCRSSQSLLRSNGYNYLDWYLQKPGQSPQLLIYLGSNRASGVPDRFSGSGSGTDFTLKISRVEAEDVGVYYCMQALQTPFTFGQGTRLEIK
notes: also called Antibody J13

Assays:
[1] = target: T2, human CD123 (IL3Rα) on cells (human, UniProt P26951 19-378); assay: flow cytometry on Ad293 cells expressing human IL3Ra, geometric mean
T2 construct: whole, on cells; also called human IL3Rα expressed on 293 cells; AD293hIL3Rα

[2] = target: T2, human CD123 (IL3Rα) on cells; assay: flow cytometry on Mv411 cells, geometric mean
[3] = target: T2, human CD123 (IL3Rα) on cells; assay: flow cytometry on OCI-AML5 cells, geometric mean
[4] = target: T2, human CD123 (IL3Rα) on cells; assay: flow cytometry on THP-1 CD123(+dox) cells, Geo MFI
Description: (§1) THP-1 cells were transfected with an IL3Rα expression construct under the control of a doxycycline inducible promoter. THP-1 cells were maintained in DMEM containing 10% heat-inactivated fetal bovine serum (FBS) and were cultured in a humidified atmosphere of 5% CO₂ and at a temperature of 37° C. […] (Dox) inducible cells were stimulated with 1 μg/ml dox overnight before use. […] On the day of plating, cells were spun down at 1500 rpm for 3 minutes, counted, and resuspended to a final concentration of 1×10⁶ cells/ml. Two hundred μl of cells were plated in wells of 96 well microtiter plates. The plates were spun down at 1500 rpm for 3 minutes and flicked to remove media. One hundred μl of FACS buffer (PBS+2% FBS) was added to each well. […] The antibody concentration started at 12 μg/ml followed by six 1:3 dilutions (no antibody control was also run). The plates were incubated at 4° C. for 30 minutes. Following incubation, the plates were washed 3 times by spinning down at 1500 rpm for 3 minutes, flicked and 100 μl of FACs buffer was added. Alexa 647 secondary antibody (goat anti-human IgG (H+L)) was added at 1:1000 dilution in 100 μl followed by 30 minute 4° C. incubation. The plates were washed as above. […] Cells were analyzed on a BD Bioscience LSRII by collecting 10,000 cells. Flow data was analyzed in FlowJo software.

[5] = target: T2, human CD123 (IL3Rα) on cells; assay: flow cytometry on THP-1 CD123 (no dox) cells, Geo MFI
Description: as §1

[6] = target: T1, human IL3Rα (CD123), sample in solution …; assay: kinetic binding curves, antibody on the sensor, human CD123 in solution
Description: Biolayer interferometry binding experiments were performed using an Octet RED384 instrument, with all measurements made at 30° C. AHC biosensor probes were soaked in kinetics buffer (PBS pH 7.2+0.02% Tween-20, 0.1% BSA, 0.05% sodium azide) for 10 minutes, followed by baseline signal measurement in kinetics buffer for 60 seconds. […] For binding to hIL3-Rα, the antibody-loaded biosensor tips were dipped in binding buffer for 60 sec (baseline), followed by immersion in a solution containing dilutions of hIL3-Rα (10-0.16 μg/mL) for 300 sec (association), and subsequent immersion in kinetics buffer for 400 sec (dissociation). For binding to hIL5-Rα and GM-CSFRa, all steps were the same except the concentration of antigen was increased (50-1.56 μg/mL) and the dissociation step was decreased to 300 sec. The signal from a buffer only reference sample was subtracted, and all curves were fit with a 1:1 binding model to determine KD values.

| Binder | binding result [1] | also measured |
| --- | --- | --- |
| B1 | binds | – |
| B2 | binds | – |
| B3 | binds | – |
| B4 | binds | – |
| B5 | binds | – |
| B6 | binds | – |
| B7 | binds | – |
| B8 | binds | – |
| B9 | binds | – |
| B10 | binds | – |
| B11 | binds | – |
| B12 | binds | – |
| B13 | binds | – |
| B14 | binds | – |
| B15 | binds | – |
| B16 | – | binding result [2]: binds |
| B17 | – | binding result [3]: binds |
| B18 | – | binding result [3]: binds |
| B19 | – | binding result [3]: binds |
| B20 | – | EC50 (read off the curve) [4]: ~0.3 µg/mL; EC50 (read off the curve) [5]: ~0.1 µg/mL |
| B21 | – | binding result [6]: binds |
